Measured values: patent US20180250358A1, “GHRH AGONISTS FOR THE TREATMENT OF ISCHEMIC DISORDERS” (published 2018)
Non-standard residues stand in square brackets, D forms with d. No end group written: not given here. *: point of attachment. Phe(F5) = N[C@@H](Cc1c(F)c(F)c(F)c(F)c1F)C(=O)O; Desaminotyrosyl = O=C(CCc1ccc(O)cc1)*; NMeY = CN[C@@H](Cc1ccc(O)cc1)C(=O)O; Agmatine = N=C(N)NCCCCN*; Nle = CCCC[C@H](N)C(=O)O; Orn = NCCC[C@H](N)C(=O)O; Abu = CC[C@H](N)C(=O)O; Ava = NCCCCC(=O)O

T1: GHRH receptor of human pituitary membranes (human, UniProt Q02643)
T1 sequence: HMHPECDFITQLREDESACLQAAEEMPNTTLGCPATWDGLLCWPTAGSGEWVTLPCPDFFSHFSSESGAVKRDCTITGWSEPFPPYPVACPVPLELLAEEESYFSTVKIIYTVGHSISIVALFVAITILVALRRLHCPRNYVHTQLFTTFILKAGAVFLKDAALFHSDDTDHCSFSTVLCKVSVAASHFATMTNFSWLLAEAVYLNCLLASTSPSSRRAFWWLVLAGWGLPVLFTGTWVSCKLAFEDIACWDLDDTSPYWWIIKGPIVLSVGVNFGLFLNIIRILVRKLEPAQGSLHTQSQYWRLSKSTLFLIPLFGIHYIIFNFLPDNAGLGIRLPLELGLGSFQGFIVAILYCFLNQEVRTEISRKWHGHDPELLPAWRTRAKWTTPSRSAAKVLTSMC

B1: P-22326 [N-Me-Tyr^1, D-Ala^2, Gln^8, Orn^12, Abu^15, Orn^21, Nle^27, Asp^28, Apa^30]hGHRH(1-30)NH2 (peptide)
peptide: [NMeY][dA]DAIFTQSYR[Orn]VL[Abu]QLSAR[Orn]LLQDI[Nle]DR[Ava]-NH2
modifications: N-terminus assumed
SMILES: CCCC[C@H](NC(=O)[C@@H](NC(=O)[C@H](CC(=O)O)NC(=O)[C@H](CCC(N)=O)NC(=O)[C@H](CC(C)C)NC(=O)[C@H](CC(C)C)NC(=O)[C@H](CCCN)NC(=O)[C@H](CCCNC(=N)N)NC(=O)[C@H](C)NC(=O)[C@H](CO)NC(=O)[C@H](CC(C)C)NC(=O)[C@H](CCC(N)=O)NC(=O)[C@H](CC)NC(=O)[C@H](CC(C)C)NC(=O)[C@@H](NC(=O)[C@H](CCCN)NC(=O)[C@H](CCCNC(=N)N)NC(=O)[C@H](Cc1ccc(O)cc1)NC(=O)[C@H](CO)NC(=O)[C@H](CCC(N)=O)NC(=O)[C@@H](NC(=O)[C@H](Cc1ccccc1)NC(=O)[C@@H](NC(=O)[C@H](C)NC(=O)[C@H](CC(=O)O)NC(=O)[C@@H](C)NC(=O)[C@H](Cc1ccc(O)cc1)NC)[C@@H](C)CC)[C@@H](C)O)C(C)C)[C@@H](C)CC)C(=O)N[C@@H](CC(=O)O)C(=O)N[C@@H](CCCNC(=N)N)C(=O)NCCCCC(N)=O
B2: P-27407 [Dat^1, Gln^8, Orn^12, Abu^15, Orn^21, Nle^27, Asp^28]hGHRH(1-29)NH-CH3 (peptide)
peptide: [Desaminotyrosyl]ADAIFTQSYR[Orn]VL[Abu]QLSAR[Orn]LLQDI[Nle]DR-NHMe
SMILES: CCCC[C@H](NC(=O)[C@@H](NC(=O)[C@H](CC(=O)O)NC(=O)[C@H](CCC(N)=O)NC(=O)[C@H](CC(C)C)NC(=O)[C@H](CC(C)C)NC(=O)[C@H](CCCN)NC(=O)[C@H](CCCNC(=N)N)NC(=O)[C@H](C)NC(=O)[C@H](CO)NC(=O)[C@H](CC(C)C)NC(=O)[C@H](CCC(N)=O)NC(=O)[C@H](CC)NC(=O)[C@H](CC(C)C)NC(=O)[C@@H](NC(=O)[C@H](CCCN)NC(=O)[C@H](CCCNC(=N)N)NC(=O)[C@H](Cc1ccc(O)cc1)NC(=O)[C@H](CO)NC(=O)[C@H](CCC(N)=O)NC(=O)[C@@H](NC(=O)[C@H](Cc1ccccc1)NC(=O)[C@@H](NC(=O)[C@H](C)NC(=O)[C@H](CC(=O)O)NC(=O)[C@H](C)NC(=O)CCc1ccc(O)cc1)[C@@H](C)CC)[C@@H](C)O)C(C)C)[C@@H](C)CC)C(=O)N[C@@H](CC(=O)O)C(=O)N[C@@H](CCCNC(=N)N)C(=O)NC
B3: P-20351 [Ac-N-Me-Tyr^1, D-Ala^2, Gln^8, Orn^12, Abu^15, Orn^21, Nle^27, Asp^28, Agm^29]hGHRH(1-29)NH2 (peptide)
peptide: Ac-[NMeY][dA]DAIFTQSYR[Orn]VL[Abu]QLSAR[Orn]LLQDI[Nle]D[Agmatine]
SMILES: CCCC[C@H](NC(=O)[C@@H](NC(=O)[C@H](CC(=O)O)NC(=O)[C@H](CCC(N)=O)NC(=O)[C@H](CC(C)C)NC(=O)[C@H](CC(C)C)NC(=O)[C@H](CCCN)NC(=O)[C@H](CCCNC(=N)N)NC(=O)[C@H](C)NC(=O)[C@H](CO)NC(=O)[C@H](CC(C)C)NC(=O)[C@H](CCC(N)=O)NC(=O)[C@H](CC)NC(=O)[C@H](CC(C)C)NC(=O)[C@@H](NC(=O)[C@H](CCCN)NC(=O)[C@H](CCCNC(=N)N)NC(=O)[C@H](Cc1ccc(O)cc1)NC(=O)[C@H](CO)NC(=O)[C@H](CCC(N)=O)NC(=O)[C@@H](NC(=O)[C@H](Cc1ccccc1)NC(=O)[C@@H](NC(=O)[C@H](C)NC(=O)[C@H](CC(=O)O)NC(=O)[C@@H](C)NC(=O)[C@H](Cc1ccc(O)cc1)N(C)C(C)=O)[C@@H](C)CC)[C@@H](C)O)C(C)C)[C@@H](C)CC)C(=O)N[C@@H](CC(=O)O)C(=O)NCCCCNC(=N)N
B4: P-22327 [Dat^1, Gln^8, Orn^12, Abu^15, Orn^21, Nle^27, Asp^28, Apa^30]hGHRH(1-30)NH2 (peptide)
peptide: [Desaminotyrosyl]ADAIFTQSYR[Orn]VL[Abu]QLSAR[Orn]LLQDI[Nle]DR[Ava]-NH2
SMILES: CCCC[C@H](NC(=O)[C@@H](NC(=O)[C@H](CC(=O)O)NC(=O)[C@H](CCC(N)=O)NC(=O)[C@H](CC(C)C)NC(=O)[C@H](CC(C)C)NC(=O)[C@H](CCCN)NC(=O)[C@H](CCCNC(=N)N)NC(=O)[C@H](C)NC(=O)[C@H](CO)NC(=O)[C@H](CC(C)C)NC(=O)[C@H](CCC(N)=O)NC(=O)[C@H](CC)NC(=O)[C@H](CC(C)C)NC(=O)[C@@H](NC(=O)[C@H](CCCN)NC(=O)[C@H](CCCNC(=N)N)NC(=O)[C@H](Cc1ccc(O)cc1)NC(=O)[C@H](CO)NC(=O)[C@H](CCC(N)=O)NC(=O)[C@@H](NC(=O)[C@H](Cc1ccccc1)NC(=O)[C@@H](NC(=O)[C@H](C)NC(=O)[C@H](CC(=O)O)NC(=O)[C@H](C)NC(=O)CCc1ccc(O)cc1)[C@@H](C)CC)[C@@H](C)O)C(C)C)[C@@H](C)CC)C(=O)N[C@@H](CC(=O)O)C(=O)N[C@@H](CCCNC(=N)N)C(=O)NCCCCC(N)=O

Assays:
[1] = target: T1, GHRH receptor of human pituitary …; assay: competition vs 125I-JV-1-42, human pituitary membranes;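 also: pituitaries used were normal human glands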
From the text: Normal human pituitaries were purchased from the National Hormone and Peptide Program (A.F. Parlow, Los Angeles, County Harbor-UCLA Medical Center, Torrance, Calif.).

[2] = target: T1, GHRH receptor of human pituitary …; assay: competition vs 125I-[His1,Nle27]hGHRH(1-32)NH2, human pituitary membranes
From the text: Normal human pituitary was purchased from the National Hormone and Peptide Program (UCLA Medical Center, Torrance, Calif.).

Row | Binder | IC50 [1] | relative affinity (binding potency) vs JI-38 [1] | IC50 [2] | relative affinity (binding potency) compared to JI-38 [2] | relative affinity (binding potency) compared to hGHRH(1-29) [2]
1 | [NMeY][dA]DAIFTNSYR[Orn]VL[Abu]QLSAR[Orn]LLQDI[Nle]DR-NHMe [P-27409 [N-Me-Tyr^1, D-Ala^2, Orn^12, Abu^15, Orn^21, Nle^27, Asp^28]hGHRH(1-29)NH-CH3] | 1.06 nM | 4.1 vs JI-38=1 | 1.01 nM | 2.71 vs JI-38=1 | 7.57 vs hGHRH(1-29)NH2=1
2 | B1 | 0.71 nM | 6.12 vs JI-38=1 | 0.98 nM | 2.8 vs JI-38=1 | 7.81 vs hGHRH(1-29)NH2=1
3 | [NMeY][dA]DAIFTQSYR[Orn]VL[Abu]QLSAR[Orn]LLQDI[Nle]DR-NHEt [P-28420 [N-Me-Tyr^1, D-Ala^2, Gln^8, Orn^12, Abu^15, Orn^21, Nle^27, Asp^28]hGHRH(1-29)NH-CH2-CH3] | 0.52 nM | 8.37 vs JI-38=1 | 2.7 nM | 1.01 vs JI-38=1 | 2.83 vs hGHRH(1-29)NH2=1
4 | [NMeY]ADAIFTQSYR[Orn]VL[Abu]QLSAR[Orn]LLQDI[Nle]SR-NHMe [P-27405 [N-Me-Tyr^1, Gln^8, Orn^12, Abu^15, Orn^21, Nle^27]hGHRH(1-29)NH-CH3] | 1.08 nM | 4.03 vs JI-38=1 | – | 1.09 vs JI-38=1 | 3.04 vs hGHRH(1-29)NH2=1
5 | B2 | 3 nM | 1.45 vs JI-38=1 | – | 0.54 vs JI-38=1 | 1.52 vs hGHRH(1-29)NH2=1
6 | B3 | 3.44 nM | 1.26 vs JI-38=1 | 3.87 nM | 0.71 vs JI-38=1 | 1.98 vs hGHRH(1-29)NH2=1
7 | [NMeY][dA]DAIFTTSYR[Orn]VL[Abu]QLSAR[Orn]LLQDI[Nle]DR-NHMe [P-27410 [N-Me-Tyr^1, D-Ala^2, Thr^8, Orn^12, Abu^15, Orn^21, Nle^27, Asp^28]hGHRH(1-29)NH-CH3] | 0.83 nM | 5.24 vs JI-38=1 | 1.28 nM | 2.14 vs JI-38=1 | 5.98 vs hGHRH(1-29)NH2=1
8 | [NMeY][dA]DAIFTQSYR[Orn]VL[Abu]QLSAR[Orn]LLQDI[Nle]D[Agmatine] [P-20361 [N-Me-Tyr^1, D-Ala^2, Gln^8, Orn^12, Abu^15, Orn^21, Nle^27, Asp^28, Agm^29]hGHRH(1-29)NH2] | 0.82 nM | 5.3 vs JI-38=1 | 1.19 nM | 2.3 vs JI-38=1 | 6.42 vs hGHRH(1-29)NH2=1
9 | [NMeY]ADAIFTQSYR[Orn]VL[Abu]QLSAR[Orn]LLQDI[Nle]DR-NHMe [P-27406 [N-Me-Tyr^1, Gln^8, Orn^12, Abu^15, Orn^21, Nle^27, Asp^28]hGHRH(1-29)NH-CH3] | 0.3 nM | 14.5 vs JI-38=1 | – | 2.95 vs JI-38=1 | 8.22 vs hGHRH(1-29)NH2=1
10 | [NMeY][dA]DAIFTNSYR[Orn]VL[Abu]QLSAR[Orn]LLQDI[Nle]DR-NHEt [P-28421 [N-Me-Tyr^1, D-Ala^2, Orn^12, Abu^15, Orn^21, Nle^27, Asp^28]hGHRH(1-29)NH-CH2-CH3] | 1.47 nM | 2.96 vs JI-38=1 | 3.05 nM | 0.9 vs JI-38=1 | 2.5 vs hGHRH(1-29)NH2=1
11 | [NMeY][dA]DAI[Phe(F5)]TNSYR[Orn]VL[Abu]QLSAR[Orn]LLQDI[Nle]DR-NHMe [P-27404 [N-Me-Tyr^1, D-Ala^2, Fpa5^6, Orn^12, Abu^15, Orn^21, Nle^27, Asp^28]hGHRH(1-29)NH-CH3] | 0.87 nM | 5 vs JI-38=1 | – | 2.45 vs JI-38=1 | 6.83 vs hGHRH(1-29)NH2=1
12 | [NMeY][dA]DAIFTNSYR[Orn]VL[Abu]QLSAR[Orn]LLQDI[Nle]D[Agmatine] [P-20367 [N-Me-Tyr^1, D-Ala^2, Orn^12, Abu^15, Orn^21, Nle^27, Asp^28, Agm^29]hGHRH(1-29)NH2] | 1.7 nM | 2.56 vs JI-38=1 | 1.09 nM | 2.51 vs JI-38=1 | 7.01 vs hGHRH(1-29)NH2=1
13 | B4 | 1.99 nM | 2.18 vs JI-38=1 | – | 1.34 vs JI-38=1 | 3.75 vs hGHRH(1-29)NH2=1
